According to patent publication US20070117220A1, “METHOD AND APPARATUS FOR MEASURING FLUORESCENCE POLARIZATION IN LAB-ON-A-CHIP” (priority 2005, published 2007):

Experiments:
TMR-α-casein [1] = test: Protease assay by fluorescence polarization of TMR-α-casein substrate, commercial fluorescence spectrometer; type: biochemical; conditions: time course, varying enzyme concentrations (unit/mL); FIGS. 9A-9D
Protocol: Changes of fluorescence polarization FP were measured using the method and apparatus for measuring fluorescence polarization of the present invention, employing TMR-α-casein as a substrate, composed of TMR as a fluorescent probe and α-casein, a universal protein substrate reacted with various proteases.
First, TMR-α-casein, a fluorescently labeled substrate for proteases, was prepared by applying one of the well-known methods [Analytical Biochemistry (,1996) 243, 1-7] as follows.
10 mg/mL of α-casein (sigma) and 5 mg/mL of 5-carboxytetramethylrhodamine succinimidyl ester were mixed in 0.1 M sodium bicarbonate buffer solution (pH 9.0) for reaction at room temperature for two and a half hours. The resulting TMR-α-casein was purified by passing the reaction mixture over a HiTrap desalting column (Sephadex G-25 Amersham Bioscience), and used after quantitation of the amounts of protein and fluorescence.
Proteinase K, trypsin, papain and elastase were used as proteases to react at increasing concentrations. First, as a comparative example, the process that the TMR-α-casein substrate was degraded by the proteases was analyzed using a commercial fluorescence spectrometer (Perkin Elmer). […]

TMR-α-casein [2] = test: On-chip protease assay by fluorescence polarization of TMR-α-casein substrate, lab-on-a-chip with optical chopper; type: biochemical; conditions: 1 μM TMR-α-casein final in channel; reaction time 5.1 seconds; FIGS. 10A-10D
Protocol: Next, the protease assays were carried out using an apparatus for measuring fluorescence polarization including the optical chopper of FIG. 2 on a lab-on-a-chip of glass composed of a channel 1 C1, in which substrates or enzymes flowed, and a channel 2 C2, in which the reaction occurred, the channels having a depth of 12 μm and a width of 79 μm as depicted in FIG. 8.
For on-chip protease assays, the substrates and the enzymes should mix completely prior to the enzyme reactions. […] […] Therefore, the reaction time was confirmed to be 5.1 seconds after mixing of the substrate with the enzymes.
Subsequently, to carry out the protease assays in the lab-on-a-chip,2 μM of TMR-α-casein (the final concentration in the channel was 1 μM) was placed in a substrate reservoir and the respective proteases were placed in an enzyme reservoir at increasing concentrations in the same manner as the comparative example. Then, the two substances were allowed to flow into a channel 2 C2, a main channel, to cause a reaction. Fluorescence polarization FP was then measured at the detection point, positioned 32 mm away from the junction, from which the substrates and the enzymes flowed in.
Again, it was noted that fluorescence polarization values plateaued when the concentration of the enzymes reached at the point generating a specific rate or more.

| change of fluorescence polarization values of TMR-α-casein with enzyme concentration (TMR-α-casein [2]) | Molecule | change of fluorescence polarization values of TMR-α-casein as the reaction proceeded (TMR-α-casein [1]) |
| --- | --- | --- |
| decreased with increasing concentrations | papain: protease reacted with TMR-α-casein substrate (protein, UniProt P00784 134-345, looked up) Papain: IPEYVDWRQKGAVTPVKNQGSCGSCWAFSAVVTIEGIIKIRTGNLNEYSEQELLDCDRRSYGCNGGYPWSALQLVAQYGIHYRNTYPYEGVQRYCRSREKGPYAAKTDGVRQVQPYNEGALLYSIANQPVSVVLEAAGKDFQLYRGGIFVGPCGNKVDHAVAAVGYGPNYILIKNSWGTGWGENGYIRIKRGTGNSYGVCGLYTSSFYPVKN | decreased |
| decreased with increasing concentrations | proteinase K: protease reacted with TMR-α-casein substrate (protein, UniProt P06873 106-384, looked up) Proteinase K: AAQTNAPWGLARISSTSPGTSTYYYDESAGQGSCVYVIDTGIEASHPEFEGRAQMVKTYYYSSRDGNGHGTHCAGTVGSRTYGVAKKTQLFGVKVLDDNGSGQYSTIIAGMDFVASDKNNRNCPKGVVASLSLGGGYSSSVNSAAARLQSSGVMVAVAAGNNNADARNYSPASEPSVCTVGASDRYDRRSSFSNYGSVLDIFGPGTSILSTWIGGSTRSISGTSMATPHVAGLAAYLMTLGKTTAASACRYIADTANKGDLSNIPFGTVNLLAYNNYQA | decreased |
